This experiment addresses T1, His-MBP-tagged SSRP1 (1–709) (human, UniProt Q08945 1-709).
T1 construct: SSRP1 subunit of human FACT, residues 1-709; The tag was still on SSRP1 when the complex with Spt16 was purified on Nickel-NTA; it was cut afterwards; also called structure-specific recognition protein 1; source: E. coli BL21(DE3), purified (Nickel-NTA)
In words: pull-down; purified Spt16 and His-MBP-tagged SSRP1 mixed at a 1:1 molar ratio, complex purified on Nickel-NTA by the tag of SSRP1; after TEV cleavage again Nickel-NTA and Superdex 200 SEC; 50 mM NaH2PO4-Na2HPO4, 300 mM NaCl, pH 7.5. Particulars: both partners purified.

This note sets out measurements from PMC5295774, “Stabilization of Nucleosomes by Histone Tails and by FACT Revealed by spFRET Microscopy” (Cancers, 2017).

T1 sequence (Q08945 whole entry, the tested form may be a part): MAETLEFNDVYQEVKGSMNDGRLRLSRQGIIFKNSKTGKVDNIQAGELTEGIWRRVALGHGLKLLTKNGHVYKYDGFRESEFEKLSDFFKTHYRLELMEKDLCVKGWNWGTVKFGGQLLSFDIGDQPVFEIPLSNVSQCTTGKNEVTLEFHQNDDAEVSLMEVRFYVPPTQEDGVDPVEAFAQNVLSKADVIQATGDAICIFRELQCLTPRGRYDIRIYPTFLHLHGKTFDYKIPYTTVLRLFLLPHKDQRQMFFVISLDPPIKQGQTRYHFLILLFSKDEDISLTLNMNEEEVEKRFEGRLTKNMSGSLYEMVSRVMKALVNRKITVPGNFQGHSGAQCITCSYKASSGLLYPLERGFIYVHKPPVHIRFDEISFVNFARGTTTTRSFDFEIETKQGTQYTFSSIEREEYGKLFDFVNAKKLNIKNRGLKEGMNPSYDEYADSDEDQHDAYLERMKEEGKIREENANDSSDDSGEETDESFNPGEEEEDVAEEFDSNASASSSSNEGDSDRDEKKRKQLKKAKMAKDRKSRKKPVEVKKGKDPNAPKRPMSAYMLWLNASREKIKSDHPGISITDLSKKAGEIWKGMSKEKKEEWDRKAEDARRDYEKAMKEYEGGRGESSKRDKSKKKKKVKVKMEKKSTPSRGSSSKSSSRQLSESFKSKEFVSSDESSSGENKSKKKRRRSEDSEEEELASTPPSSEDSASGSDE

B1: Spt16 (501–1006) (domain or fragment, human, UniProt Q9Y5B9 501-1006, looked up)
chain: QIQKARKSNVSYKNPSLMPKEPHIREMKIYIDKKYETVIMPVFGIATPFHIATIKNISMSVEGDYTYLRINFYCPGSALGRNEGNIFPNPEATFVKEITYRASNIKAPGEQTVPALNLQNAFRIIKEVQKRYKTREAEEKEKEGIVKQDSLVINLNRSNPKLKDLYIRPNIAQKRMQGSLEAHVNGFRFTSVRGDKVDILYNNIKHALFQPCDGEMIIVLHFHLKNAIMFGKKRHTDVQFYTEVGEITTDLGKHQHMHDRDDLYAEQMEREMRHKLKTAFKNFIEKVEALTKEELEFEVPFRDLGFNGAPYRSTCLLQPTSSALVNATEWPPFVVTLDEVELIHFERVQFHLKNFDMVIVYKDYSKKVTMINAIPVASLDPIKEWLNSCDLKYTEGVQSLNWTKIMKTIVDDPEGFFEQGGWSFLEPEGEGSDAEEGDSESEIEDETFNPSEDDYEEEEEDSDEDYSSEAEESDYSKESLGSEEESGKDWDELEEEARKADRESRY
notes: Spt16 subunit of human FACT, residues 501-1006 (without the N-terminal domain); His-MBP tag cut with TEV protease and removed by SEC before mixing with SSRP1; also called suppressor of Ty 16; Spt16 without the NTD; source: E. coli BL21(DE3), purified (Nickel-NTA, TEV cleavage, Superdex 200 SEC)
Turning to B1, the binding result is listed as “binds”.
